Paper PMC7078148, “Interactions of 17β-Hydroxysteroid Dehydrogenase Type 10 and Cyclophilin D in Alzheimer's Disease” (Neurochemical Research, 2020)

Target: T1, human full length recombinant 17β-hydroxysteroid dehydrogenase type 10 protein (His tag) (human, UniProt Q99714 1-261)
T1 construct: 17β-hydroxysteroid dehydrogenase type 10, human, full length recombinant protein; The tetramer was not measured here; The His tag and 'full length' are stated only in the co-immunoprecipitation methods; The SPR reagent is described as human recombinant protein from the same supplier, with no catalogue number; also called 17β-HSD10; ERAB; source: bought: Fitzgerald (Fitzgerald Industries …)
T1 sequence (looked up): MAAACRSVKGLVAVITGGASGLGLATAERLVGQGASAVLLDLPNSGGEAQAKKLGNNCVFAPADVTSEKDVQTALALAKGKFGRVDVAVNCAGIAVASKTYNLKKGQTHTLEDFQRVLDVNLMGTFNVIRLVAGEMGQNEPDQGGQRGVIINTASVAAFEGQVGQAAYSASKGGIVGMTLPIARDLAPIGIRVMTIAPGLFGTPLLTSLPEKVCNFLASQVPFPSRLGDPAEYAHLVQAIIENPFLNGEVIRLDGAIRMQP
Test: SPR; cypD captured (response 1.5 nm) on amine-coupled anti-cypD antibody; 17β-HSD10 at 6, 10, 30, 60 and 100 nM injected 10 min, dissociation 15 min; HEPES 10 mM pH 7.4 with 250 µg/ml BSA, 15 mM KCl, 0.1 mM MgCl2; 25 °C, 20 µl/min; reference channel without cypD subtracted; global fit, 1:1 Langmuir model with mass transport
Conditions: both partners purified

Kd: 0.35 nM
koff: 5.8e-05 s⁻¹
B1: human full length cyclophilin D protein (His tag) (enzyme)
chain: not shown
notes: cyclophilin D (mitochondrial peptidyl-prolyl cis-trans isomerase F), human, full length recombinant protein; The His tag and 'full length' are stated only in the co-immunoprecipitation methods; also called cypD; PPIF; source: bought: Fitzgerald (Fitzgerald Industries International), recombinant
